Assay results reported in the supplement of paper PMC9112550, “Optimization of the antimicrobial peptide Bac7 by deep mutational scanning” (BMC Biology, 2022).

Tested on: Escherichia coli TOP10
Experiment: shrunken log2 fold change of peptide-encoding DNA abundance (4.5 h post-induction vs induction); higher = less antimicrobial activity (less host growth inhibition)
Conditions: time post-induction: 4.5 h; library: site-saturation at positions 5, 18, 19, 20
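Note: peptides expressed intracellularly from a pBAD plasmid library in pooled LB shake-flask culture, induced with 0.3% L-arabinose, DNA abundance read by NGS, three biological replicates, DESeq2 with apeglm shrinkage.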

Sequence	shrunken log2 fold change
RRIRWRPPRLPRPRPRPIDPPRP	-0.193
RRIRKRPPRLPRPRPRPCCPPRP	-0.044
RRIRWRPPRLPRPRPRPCVMPRP	0.0583
RRIRDRPPRLPRPRPRPLHQPRP	0.302
RRIRIRPPRLPRPRPRPWIVPRP	-0.157
RRIRRRPPRLPRPRPRPACTPRP	0.181
RRIRIRPPRLPRPRPRPDANPRP	0.219
RRIRWRPPRLPRPRPRPWFIPRP	-0.436
RRIRERPPRLPRPRPRPQNWPRP	-0.0518
RRIRKRPPRLPRPRPRPVLDPRP	0.0689
RRIRNRPPRLPRPRPRPKEGPRP	-0.0345
RRIRTRPPRLPRPRPRPWHSPRP	-0.274
RRIRSRPPRLPRPRPRPTMDPRP	-0.262
RRIRKRPPRLPRPRPRPKDTPRP	0.26
RRIRARPPRLPRPRPRPLEQPRP	0.156
RRIRMRPPRLPRPRPRPPKCPRP	0.0414
RRIRVRPPRLPRPRPRPVNFPRP	0.02
RRIRGRPPRLPRPRPRPDFPPRP	0.414
RRIRYRPPRLPRPRPRPEAFPRP	-0.00226
RRIRERPPRLPRPRPRPIIPPRP	-0.835
RRIRIRPPRLPRPRPRPMNPPRP	-0.372
RRIRNRPPRLPRPRPRPGQYPRP	0.0262
RRIRQRPPRLPRPRPRPMNIPRP	-0.809
RRIRQRPPRLPRPRPRPWWTPRP	-0.01
RRIRQRPPRLPRPRPRPGWSPRP	0.119

Sequence	shrunken log2 fold change
RRIRQRPPRLPRPRPRPYRWPRP	-0.0412
RRIRERPPRLPRPRPRPSIKPRP	-0.755
RRIRGRPPRLPRPRPRPVRYPRP	0.428
RRIRRRPPRLPRPRPRPDNMPRP	-0.259
RRIRPRPPRLPRPRPRPWCFPRP	-0.295
RRIRLRPPRLPRPRPRPEVCPRP	-0.0515
RRIRKRPPRLPRPRPRPPPEPRP	1.32
RRIRFRPPRLPRPRPRPAHNPRP	-0.016
RRIRYRPPRLPRPRPRPRWVPRP	-0.0064
RRIRPRPPRLPRPRPRPWSEPRP	-0.0275
RRIRMRPPRLPRPRPRPADKPRP	0.318
RRIRDRPPRLPRPRPRPIHVPRP	-0.554
RRIRARPPRLPRPRPRPAMCPRP	0.303
RRIRQRPPRLPRPRPRPEDNPRP	-0.0442
RRIRCRPPRLPRPRPRPSTWPRP	-0.0554
RRIRCRPPRLPRPRPRPQGVPRP	0.0642
RRIRGRPPRLPRPRPRPSMCPRP	0.37
RRIRGRPPRLPRPRPRPYKSPRP	-0.135
RRIRGRPPRLPRPRPRPKDHPRP	0.465
RRIRMRPPRLPRPRPRPRYSPRP	-0.342
RRIRNRPPRLPRPRPRPECPPRP	0.012
RRIRKRPPRLPRPRPRPCVFPRP	0.204
RRIRTRPPRLPRPRPRPVIRPRP	-0.176
RRIRYRPPRLPRPRPRPVARPRP	-0.206
RRIRGRPPRLPRPRPRPVSVPRP	0.624

Sequence	shrunken log2 fold change
RRIRFRPPRLPRPRPRPNEVPRP	-0.0205
RRIRGRPPRLPRPRPRPQVSPRP	0.0928
RRIRCRPPRLPRPRPRPLYRPRP	-1.14
RRIRARPPRLPRPRPRPGFYPRP	0.0241
RRIRRRPPRLPRPRPRPSDKPRP	-0.492
RRIRQRPPRLPRPRPRPKEAPRP	0.107
RRIRYRPPRLPRPRPRPDHWPRP	-0.166
RRIRARPPRLPRPRPRPNHSPRP	-0.55
RRIRVRPPRLPRPRPRPGWDPRP	0.243
RRIRMRPPRLPRPRPRPFMMPRP	-0.113
RRIRLRPPRLPRPRPRPNETPRP	-0.0172
RRIRTRPPRLPRPRPRPSYEPRP	-0.352
RRIRKRPPRLPRPRPRPDRRPRP	0.18
RRIRGRPPRLPRPRPRPKKQPRP	0.0981
RRIRYRPPRLPRPRPRPLSYPRP	-0.273
RRIRRRPPRLPRPRPRPIISPRP	-0.155
RRIRGRPPRLPRPRPRPYCHPRP	0.054
RRIRDRPPRLPRPRPRPPKCPRP	0.0933
RRIRQRPPRLPRPRPRPQSMPRP	-0.395
RRIRLRPPRLPRPRPRPWELPRP	-0.00192
RRIRERPPRLPRPRPRPYNGPRP	-0.509
RRIRPRPPRLPRPRPRPIDWPRP	0.272
RRIRMRPPRLPRPRPRPFQHPRP	0.0658
RRIRYRPPRLPRPRPRPLYRPRP	-0.335
RRIRNRPPRLPRPRPRPELQPRP	-0.0211

Sequence	shrunken log2 fold change
RRIRIRPPRLPRPRPRPNATPRP	-0.12
RRIRDRPPRLPRPRPRPRHDPRP	0.0894
RRIRIRPPRLPRPRPRPGTSPRP	-0.0281
RRIRHRPPRLPRPRPRPRLSPRP	-0.0962
RRIRRRPPRLPRPRPRPDGWPRP	1.45
RRIRARPPRLPRPRPRPTMIPRP	0.00226
RRIRHRPPRLPRPRPRPMQRPRP	0.138
RRIRTRPPRLPRPRPRPRSPPRP	0.0437
RRIRNRPPRLPRPRPRPHDVPRP	-0.0113
RRIRFRPPRLPRPRPRPVMEPRP	0.352
RRIRCRPPRLPRPRPRPNSFPRP	-0.58
RRIRSRPPRLPRPRPRPSMKPRP	-0.59
RRIRDRPPRLPRPRPRPDDIPRP	-0.00277
RRIRFRPPRLPRPRPRPIVKPRP	-0.395
RRIRLRPPRLPRPRPRPHSHPRP	1.65
RRIRERPPRLPRPRPRPVNLPRP	-0.441
RRIRKRPPRLPRPRPRPNKCPRP	-0.106
RRIRNRPPRLPRPRPRPRLKPRP	-0.00493
RRIRRRPPRLPRPRPRPQEFPRP	0.041
RRIRWRPPRLPRPRPRPHEQPRP	0.718
RRIRWRPPRLPRPRPRPIDKPRP	-0.105
RRIRFRPPRLPRPRPRPDTWPRP	0.0899
RRIRIRPPRLPRPRPRPCDMPRP	-0.511
RRIRARPPRLPRPRPRPLALPRP	0.668
RRIRERPPRLPRPRPRPGNNPRP	-0.426

Sequence	shrunken log2 fold change
RRIRNRPPRLPRPRPRPKRMPRP	-0.056
RRIRWRPPRLPRPRPRPSYWPRP	-0.415
RRIRCRPPRLPRPRPRPKPTPRP	0.128
RRIRHRPPRLPRPRPRPKNYPRP	-0.766
RRIRCRPPRLPRPRPRPDKKPRP	-0.132
RRIRRRPPRLPRPRPRPMPPPRP	0.676
RRIRDRPPRLPRPRPRPYPPPRP	-0.426
RRIRQRPPRLPRPRPRPNVDPRP	-0.0229
RRIRRRPPRLPRPRPRPRLYPRP	-0.00733
RRIRKRPPRLPRPRPRPSWSPRP	-0.075
RRIRLRPPRLPRPRPRPPTIPRP	0.168
RRIRYRPPRLPRPRPRPDSLPRP	-0.142
RRIRRRPPRLPRPRPRPDRLPRP	0.058
RRIRWRPPRLPRPRPRPHWYPRP	2.17
RRIRMRPPRLPRPRPRPALMPRP	0.114
RRIRSRPPRLPRPRPRPQCFPRP	-0.282
RRIRDRPPRLPRPRPRPCCDPRP	0.655
RRIRCRPPRLPRPRPRPQEIPRP	-0.0405
RRIRGRPPRLPRPRPRPHPFPRP	-0.0384
RRIRYRPPRLPRPRPRPQKAPRP	-0.0304
RRIRIRPPRLPRPRPRPYGIPRP	-0.329
RRIRMRPPRLPRPRPRPYSDPRP	-0.329
RRIRLRPPRLPRPRPRPISWPRP	0.0554
RRIRARPPRLPRPRPRPIMKPRP	0.102
RRIRRRPPRLPRPRPRPSSGPRP	0.0144

Sequence	shrunken log2 fold change
RRIRGRPPRLPRPRPRPWPIPRP	-0.095
RRIRDRPPRLPRPRPRPEQPPRP	-0.0458
RRIRVRPPRLPRPRPRPYWLPRP	-0.411
RRIRCRPPRLPRPRPRPYFEPRP	-0.572
RRIRTRPPRLPRPRPRPRMRPRP	0.753
RRIRDRPPRLPRPRPRPNTHPRP	-0.292
RRIRYRPPRLPRPRPRPGWFPRP	-0.112
RRIRRRPPRLPRPRPRPGKKPRP	0.0542
RRIRIRPPRLPRPRPRPRHDPRP	-0.385
RRIRFRPPRLPRPRPRPKMIPRP	-0.618
RRIRNRPPRLPRPRPRPQYMPRP	-1.16
RRIRSRPPRLPRPRPRPGGTPRP	0.247
RRIRMRPPRLPRPRPRPWHFPRP	0.201
RRIRMRPPRLPRPRPRPTVPPRP	0.388
RRIRQRPPRLPRPRPRPNRSPRP	-0.0178
RRIRFRPPRLPRPRPRPPTSPRP	0.403
RRIRSRPPRLPRPRPRPPIVPRP	-0.0118
RRIRSRPPRLPRPRPRPNNYPRP	-0.597
RRIRGRPPRLPRPRPRPRMTPRP	1.26
RRIRGRPPRLPRPRPRPGDQPRP	0.777
RRIRFRPPRLPRPRPRPIAKPRP	-0.181
RRIRLRPPRLPRPRPRPTVCPRP	-0.0284
RRIRPRPPRLPRPRPRPMKCPRP	-0.00631
RRIRIRPPRLPRPRPRPSLTPRP	-1.12
RRIRWRPPRLPRPRPRPRYYPRP	-0.0581
